Measured values as given in article PMC8924211 (Nature Communications, 2022).

Key:
Experiment in all cases: AlphaScreen or HTRF; saturation binding: HEK293 cells transfected with SNAP-tagged receptor (WT or mutant) and labelled with SNAP-Lumi4-Tb, incubated with increasing concentrations of galanin-A2 in the presence or absence of 100 uM unlabeled galanin, 1 h at room temperature; HTRF ratio 665 nm/620 nm
Conditions in all cases: one partner purified
SNAP-GAL1R K197^5.35A = biological target: T1, SNAP-GAL1R K197^5.35A (human, UniProt P47211 1-349, K197^5.35A, Lumi4-Tb on the SNAP tag)
T1 construct: also called K197A; source: HEK293, transfected, on cells; not shown: SNAP tag, N-terminal, kept
T1 sequence (looked up): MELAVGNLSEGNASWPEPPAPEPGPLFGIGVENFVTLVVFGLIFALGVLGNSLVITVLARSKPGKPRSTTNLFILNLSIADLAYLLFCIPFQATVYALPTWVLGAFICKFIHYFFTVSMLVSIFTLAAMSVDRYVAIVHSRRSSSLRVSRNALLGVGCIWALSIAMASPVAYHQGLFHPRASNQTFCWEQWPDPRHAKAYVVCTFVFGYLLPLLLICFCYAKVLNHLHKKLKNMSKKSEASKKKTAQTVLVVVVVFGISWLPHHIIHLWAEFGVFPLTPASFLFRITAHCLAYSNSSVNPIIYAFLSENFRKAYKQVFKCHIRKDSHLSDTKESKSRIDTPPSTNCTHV

SNAP-GAL1R F177^ECL2A = biological target: T2, SNAP-GAL1R F177^ECL2A (human, UniProt P47211 1-349, F177^ECL2A, Lumi4-Tb on the SNAP tag)
T2 construct: also called F177A; source: HEK293, transfected, on cells; not shown: SNAP tag, N-terminal, kept
T2 sequence (looked up): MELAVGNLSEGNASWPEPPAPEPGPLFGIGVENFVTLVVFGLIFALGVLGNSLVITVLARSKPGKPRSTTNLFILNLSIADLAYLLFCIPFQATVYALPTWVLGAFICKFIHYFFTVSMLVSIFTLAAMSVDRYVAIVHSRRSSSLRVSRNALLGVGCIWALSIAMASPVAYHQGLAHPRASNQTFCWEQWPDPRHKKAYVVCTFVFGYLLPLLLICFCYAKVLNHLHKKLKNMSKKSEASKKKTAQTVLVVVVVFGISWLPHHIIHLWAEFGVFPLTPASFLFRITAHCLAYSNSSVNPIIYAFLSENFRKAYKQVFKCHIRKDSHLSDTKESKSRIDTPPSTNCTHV

[1] = biological target: T3, N-terminal-SNAP-tagged GAL1R, wild type (human, UniProt P47211 1-349, Lumi4-Tb on the SNAP tag)
T3 construct: also called SNAP-GAL1R; GAL1R WT; source: HEK293, transfected, on cells; not shown: SNAP tag, N-terminal, kept
T3 sequence (looked up): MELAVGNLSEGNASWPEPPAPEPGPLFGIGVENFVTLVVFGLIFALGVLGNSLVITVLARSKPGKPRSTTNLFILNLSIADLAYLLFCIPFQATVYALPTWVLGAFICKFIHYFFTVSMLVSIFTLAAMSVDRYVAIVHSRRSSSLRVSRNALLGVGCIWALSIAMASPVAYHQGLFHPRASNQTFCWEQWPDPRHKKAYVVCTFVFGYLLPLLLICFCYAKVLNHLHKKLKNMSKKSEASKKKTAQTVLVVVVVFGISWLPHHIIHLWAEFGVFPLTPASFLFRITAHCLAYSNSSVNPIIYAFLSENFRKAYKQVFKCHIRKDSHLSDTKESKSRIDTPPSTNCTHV

SNAP-GAL1R Q174^4.64A = biological target: T4, SNAP-GAL1R Q174^4.64A (human, UniProt P47211 1-349, Q174^4.64A, Lumi4-Tb on the SNAP tag)
T4 construct: also called Q174A; source: HEK293, transfected, on cells; not shown: SNAP tag, N-terminal, kept
T4 sequence (looked up): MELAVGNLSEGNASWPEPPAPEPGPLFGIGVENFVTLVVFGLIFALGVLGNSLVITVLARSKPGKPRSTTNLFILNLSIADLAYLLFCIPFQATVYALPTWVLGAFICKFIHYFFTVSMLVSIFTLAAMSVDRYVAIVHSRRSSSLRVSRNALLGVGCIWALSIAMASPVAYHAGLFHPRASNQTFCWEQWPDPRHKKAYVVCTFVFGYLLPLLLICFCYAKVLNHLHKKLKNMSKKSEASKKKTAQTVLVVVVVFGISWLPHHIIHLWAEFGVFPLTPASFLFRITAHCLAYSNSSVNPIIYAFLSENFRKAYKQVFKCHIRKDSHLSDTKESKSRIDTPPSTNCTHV

SNAP-GAL1R W260^6.48A = biological target: T5, SNAP-GAL1R W260^6.48A (human, UniProt P47211 1-349, W260^6.48A, Lumi4-Tb on the SNAP tag)
T5 construct: also called W260A; source: HEK293, transfected, on cells; not shown: SNAP tag, N-terminal, kept
T5 sequence (looked up): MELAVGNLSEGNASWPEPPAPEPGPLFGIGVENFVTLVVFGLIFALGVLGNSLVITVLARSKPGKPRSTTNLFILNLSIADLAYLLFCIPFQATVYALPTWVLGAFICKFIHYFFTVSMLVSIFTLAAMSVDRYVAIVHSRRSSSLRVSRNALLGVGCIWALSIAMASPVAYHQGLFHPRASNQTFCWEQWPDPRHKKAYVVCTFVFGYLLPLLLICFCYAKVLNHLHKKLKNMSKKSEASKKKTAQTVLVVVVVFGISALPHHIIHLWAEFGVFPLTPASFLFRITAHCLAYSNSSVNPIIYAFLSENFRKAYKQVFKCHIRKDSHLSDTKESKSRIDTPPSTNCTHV

B1: galanin-A2 (full-length galanin labeled with the dye A2 on an additional cysteine at the C-terminal end) (peptide)
peptide: GWTLNSAGYLLGPHAVGNHRSFSDKNGLTSC
modifications: dye A2 on the additional C-terminal cysteine
notes: numbers count on: the mature protein; additional cysteine at the C-terminal end of the peptide, carries the dye A2; source: synthetic peptide (synthesized by Vazyme, China)
Question: For B1, which Kd (SNAP-GAL1R K197^5.35A) is on record?
Answer: 159 nM

Question: And the Kd (SNAP-GAL1R F177^ECL2A)?
Answer: 305 nM

Question: And the Kd [1]?
Answer: 22.2 nM

Question: What about the Kd (SNAP-GAL1R Q174^4.64A) of the same binder?
Answer: 351 nM

Question: What about the Kd (SNAP-GAL1R W260^6.48A) of the same binder?
Answer: 51.2 nM
